Here are results for 7 proteins from publication PMC11966277.

Substrate in the data set: O=C(O)C(=O)O
As to the kind of experiment: purified protein. The note with it: pH 4.2 (optimum), 52 mM sodium acetate, 140 mM NaCl, 37 °C, potassium oxalate 0-150 mM, Mn enzyme.

B1: Oxalate decarboxylase (OxDC) (Bacillus subtilis subsp. subtilis str. 168; H279D/T263E) (protein)
chain: MKKQNDIPQPIRGDKGATVKIPRNIERDRQNPDMLVPPETDHGTVSNMKFSFSDTHNRLEKGGYAREVTVRELPISENLASVNMRLKPGAIRELHWHKEAEWAYMIYGSARVTIVDEKGRSFIDDVGEGDLWYFPSGLPHSIQALEEGAEFLLVFDDGSFSENSTFQLTDWLAHTPKEVIAANFGVTKEEISNLPGKEKYIFENQLPGSLKDDIVEGPNGEVPYPFTYRLLEQEPIESEGGKVYIADSTNFKVSKTIASALVEVEPGAMRELHWHPNTDEWQYYISGKARMTVFASDGHARTFNYQAGDVGYVPFAMGHYVENIGDEPLVFLEIFKDDHYADVSLNQWLAMLPETFVQAHLDLGKDFTDVLSKEKHPVVKKKCSK
As for B1, the Km – broadly, the substrate concentration at which the rate is half of its maximum – was found to be 5 ± 1 mM; the kcat (as a rule, the maximal rate divided by the concentration of active sites) stood at 111 s⁻¹; the specificity constant (kcat/Km) – broadly, the turnover number divided by the Michaelis constant – turned out to be 22000 M⁻¹ s⁻¹.

B2: Oxalate decarboxylase (OxDC) (Bacillus subtilis subsp. subtilis str. 168) (protein)
chain: MKKQNDIPQPIRGDKGATVKIPRNIERDRQNPDMLVPPETDHGTVSNMKFSFSDTHNRLEKGGYAREVTVRELPISENLASVNMRLKPGAIRELHWHKEAEWAYMIYGSARVTIVDEKGRSFIDDVGEGDLWYFPSGLPHSIQALEEGAEFLLVFDDGSFSENSTFQLTDWLAHTPKEVIAANFGVTKEEISNLPGKEKYIFENQLPGSLKDDIVEGPNGEVPYPFTYRLLEQEPIESEGGKVYIADSTNFKVSKTIASALVTVEPGAMRELHWHPNTHEWQYYISGKARMTVFASDGHARTFNYQAGDVGYVPFAMGHYVENIGDEPLVFLEIFKDDHYADVSLNQWLAMLPETFVQAHLDLGKDFTDVLSKEKHPVVKKKCSK
Consider B2, for which the Km was 7 ± 2 mM, the kcat came out at 103 s⁻¹ and the kcat/Km is 15000 M⁻¹ s⁻¹.

B3: Oxalate decarboxylase (OxDC) (Bacillus subtilis subsp. subtilis str. 168; I191F) (protein)
chain: MKKQNDIPQPIRGDKGATVKIPRNIERDRQNPDMLVPPETDHGTVSNMKFSFSDTHNRLEKGGYAREVTVRELPISENLASVNMRLKPGAIRELHWHKEAEWAYMIYGSARVTIVDEKGRSFIDDVGEGDLWYFPSGLPHSIQALEEGAEFLLVFDDGSFSENSTFQLTDWLAHTPKEVIAANFGVTKEEFSNLPGKEKYIFENQLPGSLKDDIVEGPNGEVPYPFTYRLLEQEPIESEGGKVYIADSTNFKVSKTIASALVTVEPGAMRELHWHPNTHEWQYYISGKARMTVFASDGHARTFNYQAGDVGYVPFAMGHYVENIGDEPLVFLEIFKDDHYADVSLNQWLAMLPETFVQAHLDLGKDFTDVLSKEKHPVVKKKCSK
Regarding B3, the Michaelis constant (Km) worked out at 7 ± 2 mM, the kcat amounted to 101 s⁻¹ and the kcat/Km amounted to 14000 M⁻¹ s⁻¹.

B4: Oxalate decarboxylase (OxDC) (Bacillus subtilis subsp. subtilis str. 168; H279D) (protein)
chain: MKKQNDIPQPIRGDKGATVKIPRNIERDRQNPDMLVPPETDHGTVSNMKFSFSDTHNRLEKGGYAREVTVRELPISENLASVNMRLKPGAIRELHWHKEAEWAYMIYGSARVTIVDEKGRSFIDDVGEGDLWYFPSGLPHSIQALEEGAEFLLVFDDGSFSENSTFQLTDWLAHTPKEVIAANFGVTKEEISNLPGKEKYIFENQLPGSLKDDIVEGPNGEVPYPFTYRLLEQEPIESEGGKVYIADSTNFKVSKTIASALVTVEPGAMRELHWHPNTDEWQYYISGKARMTVFASDGHARTFNYQAGDVGYVPFAMGHYVENIGDEPLVFLEIFKDDHYADVSLNQWLAMLPETFVQAHLDLGKDFTDVLSKEKHPVVKKKCSK
In the case of B4, the Km is listed as 6 ± 2 mM, the kcat was 58 s⁻¹ and the kcat/Km is 10000 M⁻¹ s⁻¹.

B5: Oxalate decarboxylase (OxDC) (Bacillus subtilis subsp. subtilis str. 168; I191F/T263E) (protein)
chain: MKKQNDIPQPIRGDKGATVKIPRNIERDRQNPDMLVPPETDHGTVSNMKFSFSDTHNRLEKGGYAREVTVRELPISENLASVNMRLKPGAIRELHWHKEAEWAYMIYGSARVTIVDEKGRSFIDDVGEGDLWYFPSGLPHSIQALEEGAEFLLVFDDGSFSENSTFQLTDWLAHTPKEVIAANFGVTKEEFSNLPGKEKYIFENQLPGSLKDDIVEGPNGEVPYPFTYRLLEQEPIESEGGKVYIADSTNFKVSKTIASALVEVEPGAMRELHWHPNTHEWQYYISGKARMTVFASDGHARTFNYQAGDVGYVPFAMGHYVENIGDEPLVFLEIFKDDHYADVSLNQWLAMLPETFVQAHLDLGKDFTDVLSKEKHPVVKKKCSK
As to B5, the Michaelis constant (Km) turned out to be 5 ± 1 mM, the kcat is 37 s⁻¹ and the kcat/Km worked out at 7000 M⁻¹ s⁻¹.

B6: Oxalate decarboxylase (OxDC) (Bacillus subtilis subsp. subtilis str. 168; H279D/I191F) (protein)
chain: MKKQNDIPQPIRGDKGATVKIPRNIERDRQNPDMLVPPETDHGTVSNMKFSFSDTHNRLEKGGYAREVTVRELPISENLASVNMRLKPGAIRELHWHKEAEWAYMIYGSARVTIVDEKGRSFIDDVGEGDLWYFPSGLPHSIQALEEGAEFLLVFDDGSFSENSTFQLTDWLAHTPKEVIAANFGVTKEEFSNLPGKEKYIFENQLPGSLKDDIVEGPNGEVPYPFTYRLLEQEPIESEGGKVYIADSTNFKVSKTIASALVTVEPGAMRELHWHPNTDEWQYYISGKARMTVFASDGHARTFNYQAGDVGYVPFAMGHYVENIGDEPLVFLEIFKDDHYADVSLNQWLAMLPETFVQAHLDLGKDFTDVLSKEKHPVVKKKCSK
For B6, the Km amounted to 5 ± 2 mM, the turnover number (kcat) worked out at 110 s⁻¹ and the kcat/Km turned out to be 22000 M⁻¹ s⁻¹.

B7: Oxalate decarboxylase (OxDC) (Bacillus subtilis subsp. subtilis str. 168; Y244R) (protein)
chain: MKKQNDIPQPIRGDKGATVKIPRNIERDRQNPDMLVPPETDHGTVSNMKFSFSDTHNRLEKGGYAREVTVRELPISENLASVNMRLKPGAIRELHWHKEAEWAYMIYGSARVTIVDEKGRSFIDDVGEGDLWYFPSGLPHSIQALEEGAEFLLVFDDGSFSENSTFQLTDWLAHTPKEVIAANFGVTKEEISNLPGKEKYIFENQLPGSLKDDIVEGPNGEVPYPFTYRLLEQEPIESEGGKVRIADSTNFKVSKTIASALVTVEPGAMRELHWHPNTHEWQYYISGKARMTVFASDGHARTFNYQAGDVGYVPFAMGHYVENIGDEPLVFLEIFKDDHYADVSLNQWLAMLPETFVQAHLDLGKDFTDVLSKEKHPVVKKKCSK
As for B7, the Km was 5 ± 1 mM, the kcat is 95 s⁻¹ and the specificity constant (kcat/Km) was found to be 19000 M⁻¹ s⁻¹.
